Values joined by “and” are separate entries in the source; they are usually repeats but may differ in a detail not shown here. Equal values may be shown once.
How the values were obtained:
Aβ1-42 fibrils [1] = biological target: T1, Aβ1-42 fibrils (human); assay: SPR (BIAcore T200); Aβ1-42 fibrils immobilized, Fab as analyte; global 1:1 fit; apparent KD
T1 construct: Aβ1-42 polypeptide, HFIP-treated, incubated in 10 mM HCl at 37 C for 24 h, pelleted fibrillar fraction, sonicated; Multimeric fibril; also called fibril Aβ42; fibrillar Aβ42
T1 sequence (peptide, as listed by the source): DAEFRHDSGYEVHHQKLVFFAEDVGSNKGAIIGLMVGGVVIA
Protocol: (§1) Fibrils were immobilized on sensor chip CMS (GE Healthcare Life Sciences) via amine coupling to a level to ensure a maximum binding of analyte of approximately 100 RU. Various concentrations of antibodies or Fabs (ranging from 1 nM to 100 nM) were passed over the coupled ligand at 30 μL/min in running buffer (HBS+0.05% P-20, 1 mg/mL BSA) for 300 s association time and 1200 s dissociation time. Regeneration of the chip surface was accomplished by 2 short injections of 10 mM Glycine-HCl at pH 1.7. Data was blank-subtracted to both a sensor not containing ligand and 0 nM analyte concentration. Analysis was performed using a global 1:1 fit with BIAcore Insight Evaluation software (v2.0) with bulk refractive index set to zero RU.

Aβ1-42 fibrils [2] = biological target: T1, Aβ1-42 fibrils; assay: SPR (BIAcore T200); Aβ1-42 fibrils immobilized, Fab as analyte; global 1:1 fit
Protocol: as §1

Aβ1-42 fibrils [3] = biological target: T1, Aβ1-42 fibrils; assay: SPR (BIAcore T200); Aβ1-42 fibrils immobilized, antibody as analyte; global 1:1 fit
Protocol: (§2) Fibrils were immobilized on sensor chip CMS (GE Healthcare Life Sciences) via amine coupling to a level to ensure a maximum binding of analyte of approximately 50 RU. […] Regeneration of the chip surface was accomplished by 2 short injections of 10 mM Glycine-HCl pH 1.7. Data was blank subtracted to both a sensor not containing ligand and 0 nM analyte concentration. Analysis was performed using a global 1:1 fit with BIAcore Insight Evaluation software (v2.0) with bulk refractive index set to zero RU.

Aβ1-28 [4] = biological target: T2, Aβ1-28 (human); assay: SPR (Biacore T200); antibody captured by anti-human Fc, Aβ1-28 as analyte; global 1:1 fit
T2 construct: Bought peptide (Bachem); also called Aß1-28 monomer; A131-28
T2 sequence (peptide, as listed by the source): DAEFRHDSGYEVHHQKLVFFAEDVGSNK
Protocol: (§3) Determination of binding affinity of anti-Aß candidates to Aß₁₋₂₈ (Bachem, Torrance, CA) was performed using a Biacore T200. Anti-human Fc antibody was immobilized to a CM3 sensor chip (GE Healthcare Life Sciences) via amine coupling and used to capture Aß antibodies.
(§4) Various concentrations of Aß₁₋₂₈ (analyte, ranging from concentrations of 100 nM down to 0.39 nM, serial diluted 2-fold each dilution step) were passed over the captured ligand at 50 μl/min in running buffer (HBS+0.05% P-20, 1 mg/mL BSA) for 240 s association time and 900 s dissociation time. Data were blank subtracted to both an irrelevant sensor not containing ligand, and buffer runs containing 0 nM analyte concentration. Analysis was performed using a global 1:1 fit with Biacore Evaluation software (v3.0).

Aβ1-28 [5] = biological target: T2, Aβ1-28; assay: SPR (Biacore T200); antibody captured by anti-human Fc, Aβ1-28 as analyte; global 1:1 fit; apparent KD
Protocol: as §3, §4

Aβ1-42 fibrils [6] = biological target: T1, Aβ1-42 fibrils; assay: SPR (BIAcore T200); Aβ1-42 fibrils immobilized, antibody as analyte; global 1:1 fit; apparent KD (avidity)
Protocol: as §2

Aβ1-42 fibrils [7] = biological target: T1, Aβ1-42 fibrils; assay: competition ELISA; plate coated with fibril Aβ42; competitor hBP-biotin; IC50 of test divided by IC50 of hBP
Protocol: To generate fibrils, Aβ 1-42 polypeptides, previously treated with HFIP (hexafluoroisopropanol) and dried, were resuspended in DMSO to 5 mM, then further diluted to 100 uM with 10 mM HCl. Samples were incubated at 37° C. for 24 h, and then centrifuged to separate soluble and fibrillar species. The pellet was the resuspended in 1×D-PBS to the original volume and sonicated before use.
Plates were coated with 0.5 mg/ml of fibril Aβ 42 and blocked, e.g., with 1% BSA/PBS. […] 100 ul of GE Streptavidin HRP diluted 1/10,000 was then added and incubated for 30 minutes. Plates were then washed 6× with TTBS. Thermo Fisher o-phenylenediamine dihydrochloride (OPD) substrate was prepared fresh per manufacturers direction, and 100 ul per well was added. The reaction was incubated for 15 minutes and the reaction stopped with 50 ul 2N H₂SO₄.

[8] = biological target: T3, Aβ pathology (plaques) in human AD brain tissue (human, UniProt P05067 672-713); assay: IHC on frozen human AD brain sections, brain AD 11-97; % stained area against antibody concentration (0.03-9 µg/ml)
T3 construct: Native tissue deposits, heterogeneous; also called tissue Aβ pathology; Aβ plaques
Protocol: (§5) Tissue Sectioning and Fixation. The unfixed frozen brain tissue samples were embedded in Tissue-Tek OCT (Sakura Finetek) in cryomolds dipped in a mixture of 2-methylbutane and dry ice slurry (−60° C.) then stored at −80° C. until sectioning. Serial 10 μm thick cryosections were generated using a Leica 3050S cryostat. The sections were directly thaw-mounted on positively charged glass slides and were stored at −20° C. until use. Prior to immunohistochemistry IHC procedures, the slides were immersed in 10% neutral buffered formalin solution for 10 minutes at 4° C., rinsed in PBS, then incubated for an hour at 37° C. in a glucose oxidase solution (20 mM beta D(+) glucose, 2 mM sodium azide, and 2 units/mL glucose oxidase in 1×PBS). The slides were rinsed 3 times for 5 minutes in PBS before they were transferred onto staining racks for processing in an automated stainer.
(§6) Antibody biotinylation. The humanized IgG antibodies were biotinylated using a non-covalent method, by means of incubation with a biotin-conjugated goat anti-human monovalent fab fragment (Jackson ImmunoResearch) in a ratio of 1:4, for 1 hour at room temperature. Unbound excess Fab was absorbed by pre-incubation with human serum for an additional hour before use. The freshly prepared antibodies were then loaded into the stainer for immediate application to tissue sections.
(§7) Immunostaining. The staining was performed in an automated Leica Bond Rx Stainer (Leica Biosystems), using the Bond Research Kit (DS980, Leica Biosystems) and the avidin-biotin amplified immuno-peroxidase detection system. Each biotinylated anti-Aβ antibody, or a human IgG control, was applied to the sections, at specified concentrations, for one hour and the staining was visualized using the avidin-biotin amplification system (ABC Elite Standard, PK-6100; Vector Laboratories). Hematoxylin counter-staining of nuclei was subsequently applied to sections before dehydration in an ascending series of alcohols, clearing in xylene, cover-slipping, and air-drying.

[9] = biological target: T3, Aβ pathology (plaques) in human AD …; assay: IHC on frozen human AD brain sections, brain AD 13-75; % stained area against antibody concentration (0.03-9 µg/ml)
Protocol: as §5, §6, §7

[10] = biological target: T3, Aβ pathology (plaques) in human AD …; assay: IHC on frozen human AD brain sections, brain AD 14-11; % stained area against antibody concentration (0.03-9 µg/ml)
Protocol: as §5, §6, §7

[11] = biological target: T3, Aβ pathology (plaques) in human AD …; assay: IHC on frozen human AD brain sections, brain AD 15-19; % stained area against antibody concentration (0.03-9 µg/ml)
Protocol: as §5, §6, §7

[12] = biological target: soluble Aβ oligomers (Example 8) (UniProt P05067 672-713, biotin on the biotinylated preparation and on one tenth of the 9:1 mixture (position not given)); assay: direct ELISA; plate coated with soluble Aβ oligomers, antibody titrated
Protocol: The samples were incubated for 2 hours at room temperature. Plates were washed 4 times with TBS. 0.1% tween 20. Goat anti-human (H+L) HRP (Jackson Immunoresearch, PA) was diluted 1/5000 in 0.1% BSA/PBS 0.1% tween 20, added at 100 μl/well and incubated 1 hour at room temperature. Plates were washed 4 times and o-phenylenediamine dihydrochloride tablets (ThermoFisher) were prepared as per manufacturer instructions. 100 μl was added per well and incubated for 15 minutes at room temperature. […] Curves and resulting EC₅₀ estimations represent nonlinear 3-parameter least-squares fit of data using GraphPad Prism software.

B1: bapineuzumab Fab (Fab, V domains shown)
VH: EVQLLESGGGLVQPGGSLRLSCAASGFTFSNYGMSWVRQAPGKGLEWVASIRSGGGRTYYSDNVKGRFTISRDNSKNTLYLQMNSLRAEDTAVYYCVRYDHYSGSSDYWGQGTLVTVSS
VL: DVVMTQSPLSLPVTPGEPASISCKSSQSLLDSDGKTYLNWLLQKPGQSPQRLIYLVSKLDSGVPDRFSGSGSGTDFTLKISRVEAEDVGVYYCWQGTHFPRTFGQGTKVEIK
notes: also called hBP
Aβ1-42 fibrils [1]
  Kd: 5.34 nM

B2: h2731 Fab (Fab, V domains shown)
VH: EVQLLESGGGLVQPGGSLRLSCAASGFTFSNYGMSWVRQAPGKGLEWVASIRSGSGRTYYSDNVKGRFTISRDNSKNTLYLQMNSLRAEDTAVYYCVRYDHYSGSSDYWGQGTLVTVSS
VL: DVVMTQSPLSLPVTLGEPASISCKSSQSLLDYDGKTYLNWLLQKPGQSPQRLIYRVTNRDTGVPDRFSGSGSGTDFTLKISRVEAEDVGVYYCWQGTHFPRSFGQGTKVEIK
Aβ1-42 fibrils [2]
  koff: 0.000289 s⁻¹
  kon: 129000 M⁻¹ s⁻¹
Aβ1-42 fibrils [1]
  Kd: 2.24 nM

B3: h2726 Fab (Fab, V domains shown)
VH: EVQLLESGGGLVQPGGSLRLSCAASGFTFSNYGMSWVRQAPGKGLEWVASIRSGSGRTYYSDNVKGRFTISRDNSKNTLYLQMNSLRAEDTAVYYCVRYDHYSGSSDYWGQGTLVTVSS
VL: DVVMTQSPLSLPVTPGEPASISCKSSQSLLDYDGKTYLNWLLQKPGQSPQRLIYKVSNRDSGVPDRFSGSGSGTDFTLKISRVEAEDVGVYYCWQGTHFPRTFGQGTKVEIK
Aβ1-42 fibrils [2]
  koff: 0.000259 s⁻¹
  kon: 129000 M⁻¹ s⁻¹
Aβ1-42 fibrils [1]
  Kd: 2.01 nM

B4: h2831 (antibody, V domains shown)
VH: EVQLLESGGGLVQPGGSLRLSCAASGFTFSNFGMSWVRQAPGKGLEWVASVRSGSGRTYYSDNVKGRFTISRDNSKNTLYLQMNSLRAEDTAVYYCVRYDHYSGTSDYWGQGTLVTVSS
VL: DVVMTQSPLSLPVTLGEPASISCKSSQSLLDYDGKTYLNWLLQKPGQSPQRLIYRVTNRDTGVPDRFSGSGSGTDFTLKISRVEAEDVGVYYCWQGTHFPRSFGQGTKVEIK
notes: Humanized IgG mAb; also called PB-0575
Aβ1-42 fibrils [3]
  koff: 2.94e-05 s⁻¹
  kon: 265000 M⁻¹ s⁻¹
Aβ1-28 [4]
  koff: 0.000508 s⁻¹
  kon: 73100 M⁻¹ s⁻¹
Aβ1-28 [5]
  Kd: 6.95 nM
Aβ1-42 fibrils [6]
  Kd: 0.111 nM
Aβ1-42 fibrils [7]
  IC50 ratio (test:hBP): 0.77 ratio
[8]
  Area Under Curve: 49.2
[9]
  Area Under Curve: 139
[10]
  Area Under Curve: 149
[11]
  Area Under Curve: 49.7

B5: h2831 Fab (Fab, V domains shown)
VH: EVQLLESGGGLVQPGGSLRLSCAASGFTFSNFGMSWVRQAPGKGLEWVASVRSGSGRTYYSDNVKGRFTISRDNSKNTLYLQMNSLRAEDTAVYYCVRYDHYSGTSDYWGQGTLVTVSS
VL: DVVMTQSPLSLPVTLGEPASISCKSSQSLLDYDGKTYLNWLLQKPGQSPQRLIYRVTNRDTGVPDRFSGSGSGTDFTLKISRVEAEDVGVYYCWQGTHFPRSFGQGTKVEIK
Aβ1-42 fibrils [2]
  koff: 0.000248 s⁻¹
  kon: 108000 M⁻¹ s⁻¹
Aβ1-42 fibrils [1]
  Kd: 2.31 nM

B6: h2931 (antibody, V domains shown)
VH: EVQLLESGGGLVQPGGSLRLSCAASGFTFSNFGMSWVRQAPGKGLEWVASVRSGSGRTYYSDNVKGRFTISRDNSKNTLYLQMNSLRAEDTAVYYCVRYDHYTGTSDYWGQGTLVTVSS
VL: DVVMTQSPLSLPVTLGEPASISCKSSQSLLDYDGKTYLNWLLQKPGQSPQRLIYRVTNRDTGVPDRFSGSGSGTDFTLKISRVEAEDVGVYYCWQGTHFPRSFGQGTKVEIK
notes: also called PB-0576
[12]
  EC50: 0.023 µg/mL and 0.15 nM
Aβ1-42 fibrils [3]
  koff: 2.05e-05 s⁻¹
  kon: 335000 M⁻¹ s⁻¹
Aβ1-28 [4]
  koff: 0.000412 s⁻¹
  kon: 94700 M⁻¹ s⁻¹
Aβ1-28 [5]
  Kd: 4.35 nM
Aβ1-42 fibrils [6]
  Kd: 0.0612 nM
Aβ1-42 fibrils [7]
  IC50 ratio (test:hBP): 0.59 ratio
[8]
  Area Under Curve: 47.7
[9]
  Area Under Curve: 139
[10]
  Area Under Curve: 134
[11]
  Area Under Curve: 44.8

B7: h2931 Fab (Fab, V domains shown)
VH: EVQLLESGGGLVQPGGSLRLSCAASGFTFSNFGMSWVRQAPGKGLEWVASVRSGSGRTYYSDNVKGRFTISRDNSKNTLYLQMNSLRAEDTAVYYCVRYDHYTGTSDYWGQGTLVTVSS
VL: DVVMTQSPLSLPVTLGEPASISCKSSQSLLDYDGKTYLNWLLQKPGQSPQRLIYRVTNRDTGVPDRFSGSGSGTDFTLKISRVEAEDVGVYYCWQGTHFPRSFGQGTKVEIK
Aβ1-42 fibrils [2]
  koff: 0.000199 s⁻¹
  kon: 123000 M⁻¹ s⁻¹
Aβ1-42 fibrils [1]
  Kd: 1.62 nM

B8: h2726 (antibody, V domains shown)
VH: EVQLLESGGGLVQPGGSLRLSCAASGFTFSNYGMSWVRQAPGKGLEWVASIRSGSGRTYYSDNVKGRFTISRDNSKNTLYLQMNSLRAEDTAVYYCVRYDHYSGSSDYWGQGTLVTVSS
VL: DVVMTQSPLSLPVTPGEPASISCKSSQSLLDYDGKTYLNWLLQKPGQSPQRLIYKVSNRDSGVPDRFSGSGSGTDFTLKISRVEAEDVGVYYCWQGTHFPRTFGQGTKVEIK
notes: Humanized IgG mAb; Only the variable domains are tied to the construct; also called PB-0573
Aβ1-42 fibrils [3]
  koff: 2.12e-05 s⁻¹
  kon: 393000 M⁻¹ s⁻¹
Aβ1-28 [4]
  koff: 0.000555 s⁻¹
  kon: 92300 M⁻¹ s⁻¹
Aβ1-28 [5]
  Kd: 6.01 nM
Aβ1-42 fibrils [6]
  Kd: 0.054 nM
Aβ1-42 fibrils [7]
  IC50 ratio (test:hBP): 0.68 ratio
[8]
  Area Under Curve: 50.2
[9]
  Area Under Curve: 149
[10]
  Area Under Curve: 149
[11]
  Area Under Curve: 52.1
